From the supplement of paper PMC9112550, “Optimization of the antimicrobial peptide Bac7 by deep mutational scanning” (BMC Biology, 2022)

Test system: Escherichia coli TOP10
Test: shrunken log2 fold change of peptide-encoding DNA abundance (4.5 h post-induction vs induction); higher = less antimicrobial activity (less host growth inhibition)
Conditions: time post-induction: 4.5 h; library: site-saturation at positions 5, 18, 19, 20
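Note: peptides expressed intracellularly from a pBAD plasmid library in pooled LB shake-flask culture, induced with 0.3% L-arabinose, DNA abundance read by NGS, three biological replicates, DESeq2 with apeglm shrinkage.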

Sequence	shrunken log2 fold change
RRIRDRPPRLPRPRPRPKPQPRP	0.111
RRIRDRPPRLPRPRPRPKPVPRP	0.00913
RRIRDRPPRLPRPRPRPKRGPRP	0.0777
RRIRDRPPRLPRPRPRPKRNPRP	0.136
RRIRDRPPRLPRPRPRPKSLPRP	0.196
RRIRDRPPRLPRPRPRPKSTPRP	-0.175
RRIRDRPPRLPRPRPRPKVYPRP	-0.0329
RRIRDRPPRLPRPRPRPKWEPRP	0.104
RRIRDRPPRLPRPRPRPLACPRP	0.945
RRIRDRPPRLPRPRPRPLCIPRP	0.162
RRIRDRPPRLPRPRPRPLCTPRP	0.704
RRIRDRPPRLPRPRPRPLDFPRP	0.0675
RRIRDRPPRLPRPRPRPLDWPRP	0.0834
RRIRDRPPRLPRPRPRPLEAPRP	0.679
RRIRDRPPRLPRPRPRPLEMPRP	0.0813
RRIRDRPPRLPRPRPRPLFLPRP	-0.13
RRIRDRPPRLPRPRPRPLFMPRP	0.154
RRIRDRPPRLPRPRPRPLFQPRP	0.192
RRIRDRPPRLPRPRPRPLFTPRP	0.0222
RRIRDRPPRLPRPRPRPLGYPRP	0.0343
RRIRDRPPRLPRPRPRPLHNPRP	-0.338
RRIRDRPPRLPRPRPRPLLAPRP	1.2
RRIRDRPPRLPRPRPRPLNDPRP	-0.172
RRIRDRPPRLPRPRPRPLPCPRP	0.0544
RRIRDRPPRLPRPRPRPLQIPRP	-0.21

Sequence	shrunken log2 fold change
RRIRDRPPRLPRPRPRPLQPPRP	0.467
RRIRDRPPRLPRPRPRPLQQPRP	0.104
RRIRDRPPRLPRPRPRPLRMPRP	0.409
RRIRDRPPRLPRPRPRPLRRPRP	0.463
RRIRDRPPRLPRPRPRPLSAPRP	0.379
RRIRDRPPRLPRPRPRPLSKPRP	0.132
RRIRDRPPRLPRPRPRPLSQPRP	0.483
RRIRDRPPRLPRPRPRPLVFPRP	-0.0186
RRIRDRPPRLPRPRPRPLVYPRP	-0.259
RRIRDRPPRLPRPRPRPLWQPRP	0.316
RRIRDRPPRLPRPRPRPLYDPRP	-0.107
RRIRDRPPRLPRPRPRPMAEPRP	0.902
RRIRDRPPRLPRPRPRPMAMPRP	0.25
RRIRDRPPRLPRPRPRPMDIPRP	0.0403
RRIRDRPPRLPRPRPRPMDKPRP	-0.0384
RRIRDRPPRLPRPRPRPMEEPRP	-0.00277
RRIRDRPPRLPRPRPRPMELPRP	0.0119
RRIRDRPPRLPRPRPRPMGQPRP	0.0515
RRIRDRPPRLPRPRPRPMHFPRP	-0.142
RRIRDRPPRLPRPRPRPMHPPRP	-0.0589
RRIRDRPPRLPRPRPRPMKFPRP	-0.00192
RRIRDRPPRLPRPRPRPMKQPRP	-0.076
RRIRDRPPRLPRPRPRPMLAPRP	0.607
RRIRDRPPRLPRPRPRPMLSPRP	4.44e-05
RRIRDRPPRLPRPRPRPMMLPRP	-0.0234

Sequence	shrunken log2 fold change
RRIRDRPPRLPRPRPRPMNTPRP	-0.125
RRIRDRPPRLPRPRPRPMPGPRP	0.065
RRIRDRPPRLPRPRPRPMPKPRP	-0.0503
RRIRDRPPRLPRPRPRPMPPPRP	0.361
RRIRDRPPRLPRPRPRPMQRPRP	-0.00663
RRIRDRPPRLPRPRPRPMSLPRP	-0.558
RRIRDRPPRLPRPRPRPMTDPRP	-0.109
RRIRDRPPRLPRPRPRPMTSPRP	-0.169
RRIRDRPPRLPRPRPRPMVEPRP	0.465
RRIRDRPPRLPRPRPRPMYDPRP	-0.208
RRIRDRPPRLPRPRPRPMYQPRP	-0.075
RRIRDRPPRLPRPRPRPNAAPRP	0.0798
RRIRDRPPRLPRPRPRPNAGPRP	0.149
RRIRDRPPRLPRPRPRPNAHPRP	-0.0544
RRIRDRPPRLPRPRPRPNCGPRP	0.387
RRIRDRPPRLPRPRPRPNDYPRP	-0.197
RRIRDRPPRLPRPRPRPNLAPRP	-0.0121
RRIRDRPPRLPRPRPRPNLGPRP	-0.00884
RRIRDRPPRLPRPRPRPNLYPRP	-0.0872
RRIRDRPPRLPRPRPRPNMWPRP	-0.152
RRIRDRPPRLPRPRPRPNNHPRP	-0.543
RRIRDRPPRLPRPRPRPNPCPRP	-0.328
RRIRDRPPRLPRPRPRPNRFPRP	-0.00648
RRIRDRPPRLPRPRPRPNRGPRP	-0.0177
RRIRDRPPRLPRPRPRPNTMPRP	-0.167
